Experimental data: patent publication US20110244457A1

Tests used:
human IL-8 (human) [1] = target: human IL-8 (human) (UniProt P10145); assay: homogeneous immuno-SDA, 100 pM IL-8 in binding mixture, 1 nM Ab1-SA-P1 with 1 nM Ab2-P2 (G265-5-LHP-3) as second proximity member
human IL-8 (human) [2] = target: human IL-8 (human) (UniProt P10145); assay: homogeneous immuno-SDA, 10 pM IL-8 in binding mixture, 1 nM Ab1-SA-P1 with 1 nM Ab2-P2 (G265-5-LHP-3) as second proximity member; signal needs both antibodies on IL-8
human IL-8 (human) [3] = target: human IL-8 (human) (UniProt P10145); assay: homogeneous immuno-SDA with tether oligonucleotide, 10 pM IL-8 in binding mixture, 1 nM Ab1-SA-TO plus RHP-3 with 1 nM Ab2-P2 (G265-5-LHP-3)
human IL-8 (human) [4] = target: human IL-8 (human) (UniProt P10145); assay: homogeneous immuno-SDA with reversed probe RBD-3v3, 0.1 pM IL-8 in binding mixture, 20 pM Ab1-SA-P1 with 100 pM Ab2-P2 (G265-5-LHP-3), 50 nM blocker RDB-3z8
human IL-8 (human) [5] = target: human IL-8 (human) (UniProt P10145); assay: homogeneous immuno-SDA with reversed probe RBD-3v3, 1.0 pM IL-8 in binding mixture, 20 pM Ab1-SA-P1 with 100 pM Ab2-P2 (G265-5-LHP-3), 50 nM blocker RDB-3z8
human IL-8 (human) [6] = target: human IL-8 (human) (UniProt P10145); assay: homogeneous immuno-SDA, 1,000 pM IL-8 in binding mixture, 1 nM Ab1-SA-P1 with 1 nM Ab2-P2 (G265-5-LHP-3) as second proximity member
human IL-8 (human) [7] = target: human IL-8 (human) (UniProt P10145); assay: homogeneous immuno-SDA with reversed probe RBD-3v3, 0.5 pM IL-8 in binding mixture, 20 pM Ab1-SA-P1 with 100 pM Ab2-P2 (G265-5-LHP-3), 50 nM blocker RDB-3z8
human IL-8 (human) [8] = target: human IL-8 (human) (UniProt P10145); assay: homogeneous immuno-SDA with tether oligonucleotide, 100 pM IL-8 in binding mixture, 1 nM Ab1-SA-TO plus RHP-3 with 1 nM Ab2-P2 (G265-5-LHP-3)
human IL-8 (human) [9] = target: human IL-8 (human) (UniProt P10145); assay: homogeneous immuno-SDA with reversed probe RBD-3v3, 0.25 pM IL-8 in binding mixture, 20 pM Ab1-SA-P1 with 100 pM Ab2-P2 (G265-5-LHP-3), 50 nM blocker RDB-3z8

Chain of MAb G265-8 (BD Bioscience Pharmingen), directed against human IL-8, covalently coupled to streptavidin (anti-IL-8 IgG-SA conjugate) (P22629 37-163): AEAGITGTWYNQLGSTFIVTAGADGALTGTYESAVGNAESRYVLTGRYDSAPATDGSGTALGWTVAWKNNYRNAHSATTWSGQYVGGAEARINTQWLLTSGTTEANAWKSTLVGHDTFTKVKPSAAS
Chain of human IL-8 (human) (P10145 28-99 limits assumed): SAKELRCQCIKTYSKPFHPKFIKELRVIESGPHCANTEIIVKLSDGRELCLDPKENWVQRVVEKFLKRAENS

Average MOTA (n = 6) (human IL-8 (human) [1]): 73900
Average MOTA (n = 6) (human IL-8 (human) [2]): 3980
Average MOTA (n = 6) (human IL-8 (human) [3]): 505
Average MOTA (n = 4) (human IL-8 (human) [4]): 23100
Average MOTA (n = 4) (human IL-8 (human) [5]): 129000
Average MOTA (n = 6) (human IL-8 (human) [6]): 129000
Average MOTA (n = 4) (human IL-8 (human) [7]): 118000
Average MOTA (n = 6) (human IL-8 (human) [8]): 32200
Average MOTA (n = 4) (human IL-8 (human) [9]): 81600
Substance: MAb G265-8 (BD Bioscience Pharmingen), directed against human IL-8, covalently coupled to streptavidin (anti-IL-8 IgG-SA conjugate) (from UniProt P22629 37-163) (antibody)
